The values that follow come from patent publication US20110065123A1.

The test has as its target Rac1 (non-glucosylated) of mouse intestinal epithelial CT26 cells (mouse) (UniProt P63001). Put plainly: cell-based or functional assay.
“full-length recombinant Clostridium difficile toxin A (rTcdA), His-tagged, expressed in Bacillus megaterium (from UniProt P16154 1-2710) (enzyme)” registered a glucosylation of Rac1 in CT26 cells, 5 h (Western blot with anti-Rac1 clone 102): complete of 40 ng/mL.

As for “full-length recombinant Clostridium difficile toxin B (rTcdB), His-tagged, expressed in Bacillus megaterium (from UniProt P18177 2-2366) (enzyme)”, the glucosylation of Rac1 in CT26 cells, 5 h (Western blot with anti-Rac1 clone 102): complete fell in the range of 0.4 to 2 ng/mL.

The substance “native TcdA (nTcdA) purified from culture supernatant of C. difficile strain VPI 10463 (from UniProt P16154 1-2710) (enzyme)” had a glucosylation of Rac1 in CT26 cells, 5 h (Western blot with anti-Rac1 clone 102): complete of 40 ng/mL.

“native TcdB (nTcdB) purified from C. difficile strain VPI 10463 (from UniProt P18177 2-2366) (enzyme)” returned a glucosylation of Rac1 in CT26 cells, 5 h (Western blot with anti-Rac1 clone 102): complete of 0.4 to 2 ng/mL.
